IC50 and Kd data for 3 molecules are collected here from PMC2690590, “Functional recombinant MHC class II molecules and high-throughput peptide-binding assays” (Immunome Research, 2009).

Broadly, the IC50 is the concentration needed to halve the response being measured. A high value points to a need for much substance. A word on the Kd: it is the equilibrium constant for the complex coming apart. Read a high Kd as weaker binding.

For assay [1], the target named is DR1GrpE: DR1 α chain 1–181 and β chain 1–190 fused C-terminally to GrpE, not biotinylated (human). The assay is described as follows: AlphaScreen or HTRF. For orientation: Alpha assays give light when donor and acceptor beads are brought close together.
Assay [2] deals with DR2a (DRA*0101/DRB5*0101) with non-biotinylated β chain, competitive LOCI assay (human). Description: AlphaScreen or HTRF.
For assay [3], the target named is DR2a (DRA*0101/DRB5*0101), biotinylated, direct LOCI assay at pH 6 (human). The assay is described as follows: AlphaScreen or HTRF; direct LOCI: α and biotinylated β chains refolded with peptide titration, 48 h at 18°C; streptavidin donor beads and anti-MHC-II antibody acceptor beads; half saturation (EC50) fitted to Y = Bmax*X/(KD+X) and taken as approximate KD; pH as optimised for each MHC (DR2a at pH 6).

In assay [4] the target is DR3: DRA*0101/DRB1*0301 (human). The assay is described as above.
For assay [5], the target named is I-E^d (mouse MHC class II) (mouse) (UniProt P01904). Described as above.
For assay [6], the target named is DRB1*0813: DRA*0101/DRB1*0813 (human). The assay is described as above.
The target in assay [7] is DRB3*0301: DRA*0101/DRB3*0301 (human). Described as above.
Assay [8] addresses DR4 (DRA*0101/DRB1*0401), biotinylated, LOCI assay (human). Described as above.
The target of assay [9] is DP401: DPA1*0103/DPB1*0401 (human). Described as above.

B1: Murine β2m peptide … (peptide)
peptide: IQMLKNGKKIPKVEMS
In the case of B1, the values for the concentration for half-maximal inhibition (IC50) in assay [1] and in [2] were 1230 nM and 3 nM, respectively. For the same molecule, the dissociation constant Kd in assay [3] amounted to 6 nM; in assay [4], 21 nM; in assay [5], 117 nM; in assay [6], 73 nM; in assay [7], 70 nM.

B2: TERT572Y peptide … (peptide)
peptide: YLFFYRKSV
In the case of B2, in assay [1], the concentration for half-maximal inhibition (IC50) was found to be 4290 nM. Further, the Kd in assay [3] turned out to be 2650 nM; in [8] it was 1590 nM; in assay [5] it was 322 nM; in [6] it was 95 nM.

B3: MBP peptide … (peptide)
peptide: FLYGALLLA
Turning to B3, in assay [1], the IC50 came out at 3920 nM. For the same molecule, the Kd in assay [9] stood at 34 nM.
